Source: IntAct's records for PubMed 20007317

B1: SAGA complex subunit SGF11 (Saccharomyces cerevisiae), Q03067 (parent)
chain: MTEETITIDSISNGILNNLLTTLIQDIVARETTQQQLLKTRYPDLRSYYFDPNGSLDINGLQKQQESSQYIHCENCGRDVSANRLAAHLQRCLSRGARR
partner: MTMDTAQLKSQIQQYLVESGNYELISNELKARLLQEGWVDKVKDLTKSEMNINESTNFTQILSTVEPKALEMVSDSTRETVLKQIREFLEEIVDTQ

Variants of: B1
Settings: with sus1_yeast SUS1, Q6WNK7

Effect of a mutation on the interaction, decreasing interaction:
MTEETITIDSISNGALNNLLTTLIQDIVARETTQQQLLKTRYPDLRSYYFDPNGSLDINGLQKQQESSQYIHCENCGRDVSANRLAAHLQRCLSRGARR
MTEETITIDSISNGILNALLTTLIQDIVARETTQQQLLKTRYPDLRSYYFDPNGSLDINGLQKQQESSQYIHCENCGRDVSANRLAAHLQRCLSRGARR
MTEETITIDSISNGILNNALTTLIQDIVARETTQQQLLKTRYPDLRSYYFDPNGSLDINGLQKQQESSQYIHCENCGRDVSANRLAAHLQRCLSRGARR
